This is an account of results in article PMC12820563, “FoxP3 forms a head-to-head dimer in vivo and stabilizes its multimerization on adjacent microsatellites”.

Data set [1] has as its target T1, MBP-FoxP3dN (Mus musculus, UniProt Q99JB6 188-423).
T1 sequence: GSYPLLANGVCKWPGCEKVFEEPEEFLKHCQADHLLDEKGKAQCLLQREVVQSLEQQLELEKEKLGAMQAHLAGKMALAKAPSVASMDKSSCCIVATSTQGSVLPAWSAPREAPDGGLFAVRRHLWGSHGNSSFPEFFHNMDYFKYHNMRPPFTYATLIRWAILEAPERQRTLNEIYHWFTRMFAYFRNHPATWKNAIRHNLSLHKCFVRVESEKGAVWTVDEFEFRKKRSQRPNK
Briefly: pull-down; comparable to IR-FKHM; Pull-down: 20 mM Tris-HCl pH 7.5, 100 mM NaCl, 1.5 mM MgCl2, room temperature, 0.4 uM MBP protein, 0.1 uM DNA (NFAT 0.2 uM); EMSA: 20 mM HEPES pH 7.5, 150 mM NaCl, 1.5 mM MgCl2, 2 mM DTT, 4 C, 0.2 uM DNA (RBR-FKH 0.8 uM, NFAT 0.4 uM). Conditions: protein: recombinant; tags: His6-MBP; chain copies: 2; blunt. The gist of the method: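 0.4 µM MBP-tagged mouse FoxP3 fragment (plus 0.2 µM NFAT fragment where included) was mixed with 0.1 µM duplex DNA in Tris buffer with NaCl and MgCl2 at room temperature. Complexes were captured on amylose resin, and proteinase K-released DNA was run on 10% TBE gels stained with SYBR Gold. In a gel-shift arm, 0.2 µM DNA and protein were held 10 min at 4 °C in HEPES buffer, then run on native gels. Binding was judged qualitatively from gels.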

Data set [2] has as its target T1, MBP-FoxP3dN. Briefly: pull-down; Pull-down: 20 mM Tris-HCl pH 7.5, 100 mM NaCl, 1.5 mM MgCl2, room temperature, 0.4 uM MBP protein, 0.1 uM DNA (NFAT 0.2 uM); EMSA: 20 mM HEPES pH 7.5, 150 mM NaCl, 1.5 mM MgCl2, 2 mM DTT, 4 C, 0.2 uM DNA (RBR-FKH 0.8 uM, NFAT 0.4 uM). Conditions: protein: recombinant; tags: His6-MBP; chain copies: 2; blunt.
In data set [3] the target is T2, MBP-FoxP3dN;NFAT1 DBD (Mus musculus;Mus musculus?, UniProt Q99JB6;Q60591 188-423;394-680, |).
T2 sequence 1: T1 sequence
T2 sequence 2: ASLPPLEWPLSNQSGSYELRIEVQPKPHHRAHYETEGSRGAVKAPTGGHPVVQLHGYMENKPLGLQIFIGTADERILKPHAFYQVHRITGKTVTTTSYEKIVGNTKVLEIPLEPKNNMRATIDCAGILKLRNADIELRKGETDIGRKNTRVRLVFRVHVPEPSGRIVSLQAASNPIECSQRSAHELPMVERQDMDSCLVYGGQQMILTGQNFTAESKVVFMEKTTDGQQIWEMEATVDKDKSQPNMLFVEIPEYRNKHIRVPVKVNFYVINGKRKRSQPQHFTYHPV
Briefly: pull-down; NFAT enhances binding; Pull-down: 20 mM Tris-HCl pH 7.5, 100 mM NaCl, 1.5 mM MgCl2, room temperature, 0.4 uM MBP protein, 0.1 uM DNA (NFAT 0.2 uM); EMSA: 20 mM HEPES pH 7.5, 150 mM NaCl, 1.5 mM MgCl2, 2 mM DTT, 4 C, 0.2 uM DNA (RBR-FKH 0.8 uM, NFAT 0.4 uM). Conditions: protein: recombinant;recombinant; tags: His6-MBP;none (His6-NusA cleaved); chain copies: 2;1; blunt.

The next data set addresses T3, FoxP3 RBR-FKH;NFAT1 DBD (Mus musculus;Mus musculus?, UniProt Q99JB6;Q60591 284-423;394-680, |).
T3 sequence 1: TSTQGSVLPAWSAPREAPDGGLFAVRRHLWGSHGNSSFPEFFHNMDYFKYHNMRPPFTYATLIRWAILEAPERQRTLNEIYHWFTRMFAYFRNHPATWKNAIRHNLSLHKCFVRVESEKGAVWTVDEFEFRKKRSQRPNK
T3 sequence 2: T2 sequence 2
Briefly: EMSA; dimer; Pull-down: 20 mM Tris-HCl pH 7.5, 100 mM NaCl, 1.5 mM MgCl2, room temperature, 0.4 uM MBP protein, 0.1 uM DNA (NFAT 0.2 uM); EMSA: 20 mM HEPES pH 7.5, 150 mM NaCl, 1.5 mM MgCl2, 2 mM DTT, 4 C, 0.2 uM DNA (RBR-FKH 0.8 uM, NFAT 0.4 uM). The conditions noted are these: protein: recombinant;recombinant; tags: none (His6-NusA cleaved);none (His6-NusA cleaved); copies: 1;1; blunt.

Data set [4] concerns the target T4, FoxP3RBR-FoxP1FKH;NFAT1 DBD (Mus musculus;Mus musculus?, UniProt Q99JB6;Q60591 284-336+P58462:493-579;394-680, internal_change|).
T4 sequence 1: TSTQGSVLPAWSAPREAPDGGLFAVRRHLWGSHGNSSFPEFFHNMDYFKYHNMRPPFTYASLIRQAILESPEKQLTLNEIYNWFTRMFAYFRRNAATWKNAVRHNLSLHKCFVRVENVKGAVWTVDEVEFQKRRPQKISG
T4 sequence 2: T2 sequence 2
Described as above. The conditions noted are these: protein: recombinant;recombinant; tags: none (His6-NusA cleaved);none (His6-NusA cleaved); chain copies: 2;1; blunt.

The target of the next data set is T5, FoxP1 RBR-FKH;NFAT1 DBD (Mus musculus;Mus musculus?, UniProt P58462;Q60591 427-579;394-680, |).
T5 sequence 1: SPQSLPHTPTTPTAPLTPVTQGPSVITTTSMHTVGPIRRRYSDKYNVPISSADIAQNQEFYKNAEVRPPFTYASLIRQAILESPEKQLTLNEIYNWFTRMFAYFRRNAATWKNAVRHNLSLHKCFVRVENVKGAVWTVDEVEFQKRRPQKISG
T5 sequence 2: T2 sequence 2
Put plainly: EMSA; monomer; Pull-down: 20 mM Tris-HCl pH 7.5, 100 mM NaCl, 1.5 mM MgCl2, room temperature, 0.4 uM MBP protein, 0.1 uM DNA (NFAT 0.2 uM); EMSA: 20 mM HEPES pH 7.5, 150 mM NaCl, 1.5 mM MgCl2, 2 mM DTT, 4 C, 0.2 uM DNA (RBR-FKH 0.8 uM, NFAT 0.4 uM). The conditions noted are these: protein: recombinant;recombinant; tags: none (His6-NusA cleaved);none (His6-NusA cleaved); copies: 1;1; blunt.

The target of data set [5] is T6, FoxP1RBR-FoxP3FKH;NFAT1 DBD (Mus musculus;Mus musculus?, UniProt P58462;Q60591 427-492+Q99JB6:337-423;394-680, internal_change|).
T6 sequence 1: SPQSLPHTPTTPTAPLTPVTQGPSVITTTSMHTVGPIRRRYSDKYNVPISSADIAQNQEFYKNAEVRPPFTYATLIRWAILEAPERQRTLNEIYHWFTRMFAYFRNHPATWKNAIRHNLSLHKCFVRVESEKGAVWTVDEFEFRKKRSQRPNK
T6 sequence 2: T2 sequence 2
Described as above. Conditions: protein: recombinant;recombinant; tags: none (His6-NusA cleaved);none (His6-NusA cleaved); copies: 1;1; blunt.

Data set [6] addresses T2, MBP-FoxP3dN;NFAT1 DBD. Briefly: pull-down; optimal NFAT cooperativity; Pull-down: 20 mM Tris-HCl pH 7.5, 100 mM NaCl, 1.5 mM MgCl2, room temperature, 0.4 uM MBP protein, 0.1 uM DNA (NFAT 0.2 uM); EMSA: 20 mM HEPES pH 7.5, 150 mM NaCl, 1.5 mM MgCl2, 2 mM DTT, 4 C, 0.2 uM DNA (RBR-FKH 0.8 uM, NFAT 0.4 uM). Conditions: protein: recombinant;recombinant; tags: His6-MBP;none (His6-NusA cleaved); chain copies: 2;1; blunt.

B1: DNA 5 (Fig S1F) (dsDNA)
DNA 1: AATTTGTGTTTATCGAGTAAACAAATTT
DNA 2: AAATTTGTTTACTCGATAAACACAAATT
Consider B1, for which the binding result with MBP-FoxP3dN [1] is reported as “binds”.

B2: DNA 4 (Fig S1F) (dsDNA)
DNA 1: AATTTTGTTTATTCGAGTAAACAAATTT
DNA 2: AAATTTGTTTACTCGAATAAACAAAATT
As for B2, in the data set with MBP-FoxP3dN [1], the binding result is reported as “binds”.

B3: DNA 10 (Fig S1F) (dsDNA)
DNA 1: AATTTGTTGCATTCGAGTAAACAAATTT
DNA 2: AAATTTGTTTACTCGAATGCAACAAATT
On to B3, for which the binding result in the data set with MBP-FoxP3dN [1] was “binds”.

B4: DNA 9 (Fig S1F) (dsDNA)
DNA 1: AATTTGTGCATCTCGAGTAAACAAATTT
DNA 2: AAATTTGTTTACTCGAGATGCACAAATT
Take B4: the binding result with MBP-FoxP3dN [1] is “binds”.

B5: DNA 3 (Fig S1F) (dsDNA)
DNA 1: AATTTTGTGCATTCGAGTAAACAAATTT
DNA 2: AAATTTGTTTACTCGAATGCACAAAATT
On to B5, for which the binding result with MBP-FoxP3dN [1] is recorded as “binds”.

B6: DNA 2 (Fig S1F) (dsDNA)
DNA 1: AATTTTGTTGTGTCGAGTAAACAAATTT
DNA 2: AAATTTGTTTACTCGACACAACAAAATT
For the molecule B6, the binding result with MBP-FoxP3dN [1] is listed as “binds”.

B7: DNA 8 (Fig S1F) (dsDNA)
DNA 1: AATTTGTGTTGTTCGAGTAAACAAATTT
DNA 2: AAATTTGTTTACTCGAACAACACAAATT
Regarding B7, the binding result with MBP-FoxP3dN [1] is “binds”.

B8: DNA 1 (Fig S1F) (dsDNA)
DNA 1: AATTTGCGCATCTCGAGTAAACAAATTT
DNA 2: AAATTTGTTTACTCGAGATGCGCAAATT
As for B8, in the data set with MBP-FoxP3dN [1], the binding result is recorded as “binds”.

B9: IR-FKHM (Fig 1C) (dsDNA)
DNA 1: TAGGAAAATTTGTTTACTCGAGTAAACATC
DNA 2: GATGTTTACTCGAGTAAACAAATTTTCCTA
With B9, the binding result with MBP-FoxP3dN [2] is “binds”.

B10: Var2 (dsDNA)
DNA 1: TTAGGAAATTTGCGCATCTCGAGTAAACAAATTT
DNA 2: AAATTTGTTTACTCGAGATGCGCAAATTTCCTAA
For B10, the binding result in the data set with MBP-FoxP3dN;NFAT1 DBD [3] is on record as “binds”.

B11: DNA1 (NFAT IR-FKHM) (dsDNA)
DNA 1: TTAGGAAAATTTGTTTACTCGAGTAAACAAA
DNA 2: TTTGTTTACTCGAGTAAACAAATTTTCCTAA
Consider B11, for which the binding result (with FoxP3 RBR-FKH;NFAT1 DBD; in data set [4]; in the data set with FoxP1 RBR-FKH;NFAT1 DBD; in data set [5]) was “binds” throughout.

B12: Var7 (dsDNA)
DNA 1: TTAGGAAATTTGTGCATTCGAGTAAACAAATTT
DNA 2: AAATTTGTTTACTCGAATGCACAAATTTCCTAA
Turning to B12, in the data set with MBP-FoxP3dN;NFAT1 DBD [6], the binding result is on record as “binds”.

B13: DNA 6 (Fig S1F) (dsDNA)
DNA 1: AATTTGCGCATTTCGAGTAAACAAATTT
DNA 2: AAATTTGTTTACTCGAAATGCGCAAATT
Take B13: the binding result with MBP-FoxP3dN [1] was “binds”.

B14: DNA 7 (Fig S1F) (dsDNA)
DNA 1: AATTTGCCGCATTCGAGTAAACAAATTT
DNA 2: AAATTTGTTTACTCGAATGCGGCAAATT
Take B14: the binding result in the data set with MBP-FoxP3dN [1] is “binds”.
